Experimental data reported in the Human Domainome abundance scans (Beltran et al. 2025).

B1: Peripheral plasma membrane protein CASK, residues 488 to 569; numbered along this chain, O14936 (parent)
chain: VRLVQFQKNTDEPMGITLKMNELNHCIVARIMHGGMIHRQGTLHVGDEIREINGISVANQTVEQLQKMLREMRGSITFKIVP

Variants of: B1
Test: abundance fitness (aPCA) (normalised: wild type 0, dead -1); higher = more abundant; growth selection in yeast, the domain comes from the species named
Details: Homo sapiens

Abundance fitness: each site, then its substitutions
C26: P 0.015 | Q -0.708 | R -0.642 | S -0.732 | Y -0.07 | G -0.736 | D -0.868 | E -0.909
H33: T 0.005 | V 0.003 | M -0.026 | Y -0.107 | D -0.011 | S -0.008 | L -0.119 | E 0.066 | F -0.102 | I -0.006 | Q 0.045 | R -0.006 | C -0.033 | G -0.054 | W -0.16 | P 0.009 | K 0.01
I31: V -0.057 | N -0.71 | Q -1.04 | D -0.61 | P -0.791 | Y -0.579 | L -0.058 | A -0.647 | K -0.93 | W -0.847 | R -0.869 | F -0.331 | S -0.859 | H -0.779 | G -1 | E -0.777
A29: M -0.057 | K -0.059 | V -0.11 | N -0.201 | C -0.279 | S -0.051 | H -0.013 | Y -0.198 | L -0.188 | I -0.115 | P -0.936 | T -0.069 | E 0.003 | G -0.08 | W -0.068 | F -0.362 | Q -0.008 | R -0.097
M36: F 0.119 | S 0.049 | R -0.092 | N -0.07 | T 0.006 | H 0.075 | V 0 | C -0.07 | Y 0.066 | L 0.025 | A 0.039 | W 0.068 | Q -0.014 | D -0.044 | I 0.029 | P 0.095 | E 0.009 | G -0.05
N24: S -0.045 | P -0.922 | W -0.467 | Y -0.226 | T -0.265 | V -0.7 | R -0.064 | M -0.204
M32: A 0.058 | F 0.086 | E 0.04 | Q 0.001 | K 0.042 | W -0.045 | L -0.083 | I 0.175 | Y -0.086 | G -0.093 | D 0.051 | V 0.027 | T 0.015 | P -0.109 | R 0.003 | N 0.062
H38: Y -0.076 | E 0.048 | Q 0.024 | F -0.057 | I -0.295 | N -0.138 | R -0.209 | T -0.313 | L -0.348 | W -0.029 | C -0.129 | D -0.043 | S -0.052 | P -0.103 | G -0.091 | K -0.138 | A -0.028
T42: V -0.019 | S 0.005 | F -0.021 | A 0.005 | G 0.005 | C -0.025 | M 0.01 | Y -0.076 | H -0.065 | K 0.025 | Q 0.003 | L -0.003 | P -0.336 | W -0.246 | R -0.038 | N -0.039 | E 0.012 | D -0.007
V28: A -0.479 | I 0.03 | N -1.01 | E -1.01 | D -0.898 | C -0.272 | Y -0.779 | W -0.931 | K -1.16 | T -0.651 | S -0.867 | L -0.424 | P -1.08 | G -0.992
G35: M -0.128 | N -0.28 | T -0.013 | C -0.066 | S 0.027 | V -0.485 | I -0.843 | H -0.068 | L -0.268 | E -0.187 | D -0.236 | W -0.422 | Y -0.134 | P -0.549 | R -0.278 | A -0.098 | F -0.243
